Test results: patent US20230277632A1, “MODIFIED PlySs2 LYSINS AND ANTIBIOTIC COMBINATIONS FOR USE AGAINST GRAM-POSITIVE BACTERIA” (ContraFect Corporation, priority 2020, published 2023)
“And” between values parts separate entries of the source, which are not always exact repeats. Equal values may be shown once.

Assays:
[1] = test system: S. aureus isolates; test: MIC determination (broth microdilution) against 8 S. aureus isolates; assay type: cell-based; design: MIC pp296 (AST media): unit not given beside the values; details: for MIC pp296 (mouse serum): 100% ICR mouse serum; for MIC pp296 (human serum): 100% human serum; for MIC pp296 (AST media): caMHB-HSD
Procedure: Suitable methods for assessing the activity of a modified lysin polypeptide as disclosed herein are well known in the art and described in the examples. […] For example, MIC values for a modified lysin polypeptide may be determined against e.g., laboratory Staphylococcus aureus strains, in e.g., Mueller-Hinton broth or Mueller-Hinton broth supplemented with serum, such as horse serum.
The pp296 MICs were determined based on (1) cation-adjusted Mueller-Hinton Broth with 25% horse serum and 0.5 mM DTT (caMHB-HSD); (2) human serum (100% serum); and (3) ICR mice (100% serum). Vancomycin and daptomycin MICs of the isolate strains were determined in accordance with the broth microdilution method as outlined by CLSI. Results of the MIC determination are shown below in Table 2. The bacterial isolates were frozen at −80° C. in skim milk.

[2] = test system: S. aureus isolates; test: In vivo efficacy of vancomycin in combination with pp296, neutropenic murine thigh infection model; details: 24 h
Procedure: Study animals: Specific pathogen-free female ICR mice (average body weight 23 grams) were provided food and water ad libitum and maintained and used in accordance with National Research Council recommendations. Animals were allowed a 48-hour post-delivery acclimation period before every experiment. Mice were rendered transiently neutropenic by injection of cyclophosphamide via intraperitoneal (IP) route at a dose of 150 mg/kg of body weight at four days before bacterial inoculation and 100 mg/kg of body weight at one day before bacterial inoculation.
Neutropenic Thigh Infection Model: Two transfers of the bacterial isolates were performed onto trypticase soy agar plates with 5% sheep blood and placed into an incubator at 37° C. for approximately 24 hours. After an 18-24 hour incubation of the second transfer, a suspension of approximately 10^7 CFU/mL was made for inoculation. Final bacterial inoculum concentrations were confirmed by serial dilution and plating techniques. Thigh infection with the test isolate was produced by intramuscular injection of 0.1 mL of the bacterial inoculum into each thigh of the mice. Antimicrobial therapy was initiated 2 hours after bacterial inoculation, as detailed below. […]
Untreated control mice (n=3) were sacrificed just prior to antibiotic administration and 24 hours after bacterial inoculation. Animals sacrificed prior to antibiotic initiation served as 0-hour control animals, representing initial bacterial burden. […] Treatment mice (n=3/group) were sacrificed at the end of the 24 hour treatment period. After sacrifice, both thighs for each mouse were homogenized in normal saline. Serial dilutions were plated on Trypticase soy agar with 5% sheep blood and incubated for 18 to 20 hours at 37.0 to determine the CFU. Efficacy was calculated as the change in bacterial density obtained in treated mice after 24 hours compared with the numbers in the 0-hour control animals. Bacterial density represents the average CFU determined from 3 mice, each contributing 2 thighs.

[3] = test system: S. aureus; test: pp296 dose fractionation study, neutropenic murine thigh infection model; assay type: in vivo
Procedure: Each of the pp296 TDDs was fractionated into three regimens, i.e., one-third of the entire dose was administered via IV three times (q8h); one-half of the entire does was administered via IV two times (q12h), or the entire dose was administered via IV once daily over a 24-hour period, for a total of three groups per each TDD.
Untreated control mice (n=3/group) were sacrificed just prior to antibiotic administration, as well as 24 hours later. Animals sacrificed prior to antibiotic administration served as 0-hour control animals, representing initial bacterial burden. The 24-hour control animals received sterile normal saline in the same volume and schedule as the most frequent active drug regimen. […] After the 24-hour treatment period, all animals were euthanized and thighs were cultured quantitatively as described above. The change in bacterial density was calculated for each of the dosing regimen. Comparisons were made between the different regimens of the same total daily dose on bacterial burdens at 24 hours using one-way Analysis of Variance (ANOVA) test followed by Tukey's test where the P value was 0.05.

B1: pp296: modified PlySs2 lysin, SEQ ID NO: 6: L92W, V104S, V128T, Y137S, Y164K, N184D, S198Q (protein)
chain: MTTVNEALNNVRAQVGSGVSVGNGECYALASWYERMISPDATVGLGAGVGWVSGAIGDTISAKNIGSSYNWQANGWTVSTSGPFKAGQIVTWGATPGNPYGHVSIVEAVDGDRLTILEQNYGGKRYPTRNYYSAASSRQQVVHYITPPGTVAQSAPNLAGSRSKRETGTMTVTVDALNVRRAPDTSGEIVAVYKRGEQFDYDTAIIDVNGYAWVSYIGGSGKRNYVATGATKDGKRFGNAWGTFK
- MIC pp296 (mouse serum) ([1]; ATCC 29213 MSSA): 256
- MIC pp296 (mouse serum) ([1]; CAIRD426 MRSA): 32
- MIC pp296 (mouse serum) ([1]; HPV107 MRSA): 128
- MIC pp296 (mouse serum) ([1]; JMI227 MRSA): 64
- MIC pp296 (mouse serum) ([1]; JMI4789 MRSA): 256
- MIC pp296 (mouse serum) ([1]; NRS100 (COL) MRSA): 32
- MIC pp296 (mouse serum) ([1]; NRS123 (MW2) MRSA): 256
- MIC pp296 (mouse serum) ([1]; NRS271 MRSA/LRSA): 64
- MIC pp296 (human serum) ([1]; ATCC 29213 MSSA): 1
- MIC pp296 (human serum) ([1]; CAIRD426 MRSA): 1
- MIC pp296 (human serum) ([1]; HPV107 MRSA): 1
- MIC pp296 (human serum) ([1]; JMI227 MRSA): 1
- MIC pp296 (human serum) ([1]; JMI4789 MRSA): 1
- MIC pp296 (human serum) ([1]; NRS100 (COL) MRSA): 1
- MIC pp296 (human serum) ([1]; NRS123 (MW2) MRSA): 1
- MIC pp296 (human serum) ([1]; NRS271 MRSA/LRSA): 0.5
- MIC pp296 (AST media) ([1]; ATCC 29213 MSSA): 1
- MIC pp296 (AST media) ([1]; CAIRD426 MRSA): 1
- MIC pp296 (AST media) ([1]; HPV107 MRSA): 1
- MIC pp296 (AST media) ([1]; JMI227 MRSA): 0.5
- MIC pp296 (AST media) ([1]; JMI4789 MRSA): 1
- MIC pp296 (AST media) ([1]; NRS100 (COL) MRSA): 1
- MIC pp296 (AST media) ([1]; NRS123 (MW2) MRSA): 1
- MIC pp296 (AST media) ([1]; NRS271 MRSA/LRSA): 1
- Replicate Log10 CFU/thigh data ([2]; ATCC2921, pp296 50 mg/kg alone, 50 mg/kg): 8.15 Log10 CFU/thigh (2×) and 8.58 Log10 CFU/thigh and 7.86 Log10 CFU/thigh and 6.81 Log10 CFU/thigh and 8.00 Log10 CFU/thigh
- Replicate Log10 CFU/thigh data ([2]; CAIRD426, pp296 50 mg/kg alone (VAN 1.5 mg/kg study)): 5.41 Log10 CFU/thigh and 5.80 Log10 CFU/thigh and 7.92 Log10 CFU/thigh and 8.33 Log10 CFU/thigh and 4.90 Log10 CFU/thigh and 6.18 Log10 CFU/thigh
- Replicate Log10 CFU/thigh data ([2]; CAIRD426, pp296 50 mg/kg alone, Run #1, 50 mg/kg): 6.04 Log10 CFU/thigh and 4.62 Log10 CFU/thigh and 5.46 Log10 CFU/thigh and 4.94 Log10 CFU/thigh and 6.53 Log10 CFU/thigh and 6.00 Log10 CFU/thigh
- Replicate Log10 CFU/thigh data ([2]; CAIRD426, pp296 50 mg/kg alone, Run #2, 50 mg/kg): 8.14 Log10 CFU/thigh and 7.97 Log10 CFU/thigh and 4.83 Log10 CFU/thigh and 4.79 Log10 CFU/thigh and 5.84 Log10 CFU/thigh and 6.07 Log10 CFU/thigh
- Replicate Log10 CFU/thigh data ([2]; HPV107, pp296 50 mg/kg alone (VAN 1.5 mg/kg study)): 8.08 Log10 CFU/thigh and 8.00 Log10 CFU/thigh and 7.05 Log10 CFU/thigh and 7.21 Log10 CFU/thigh and 4.64 Log10 CFU/thigh and 6.57 Log10 CFU/thigh
- Replicate Log10 CFU/thigh data ([2]; HPV107, pp296 50 mg/kg alone, Run #1, 50 mg/kg): 5.08 Log10 CFU/thigh and 4.96 Log10 CFU/thigh and 5.36 Log10 CFU/thigh and 6.45 Log10 CFU/thigh and 6.14 Log10 CFU/thigh and 6.78 Log10 CFU/thigh
- Replicate Log10 CFU/thigh data ([2]; HPV107, pp296 50 mg/kg alone, Run #2, 50 mg/kg): 7.35 Log10 CFU/thigh and 8.03 Log10 CFU/thigh (2×) and 6.53 Log10 CFU/thigh and 7.04 Log10 CFU/thigh and 6.30 Log10 CFU/thigh
- Replicate Log10 CFU/thigh data ([2]; JMI227, pp296 50 mg/kg alone, 50 mg/kg): 5.01 Log10 CFU/thigh and 6.67 Log10 CFU/thigh and 7.71 Log10 CFU/thigh and 8.05 Log10 CFU/thigh and 4.72 Log10 CFU/thigh and 7.34 Log10 CFU/thigh
- Replicate Log10 CFU/thigh data ([2]; JMI4789, pp296 50 mg/kg alone, 50 mg/kg): 5.02 Log10 CFU/thigh and 5.19 Log10 CFU/thigh and 7.69 Log10 CFU/thigh and 8.08 Log10 CFU/thigh and 5.11 Log10 CFU/thigh and 6.15 Log10 CFU/thigh
- Replicate Log10 CFU/thigh data ([2]; NRS100, pp296 50 mg/kg alone (VAN 1.5 mg/kg study)): 4.79 Log10 CFU/thigh and 5.29 Log10 CFU/thigh and 4.72 Log10 CFU/thigh and 4.90 Log10 CFU/thigh (2×) and 5.73 Log10 CFU/thigh
- Replicate Log10 CFU/thigh data ([2]; NRS100, pp296 50 mg/kg alone, Run #1, 50 mg/kg): 4.75 Log10 CFU/thigh and 4.81 Log10 CFU/thigh and 4.78 Log10 CFU/thigh and 4.83 Log10 CFU/thigh and 4.48 Log10 CFU/thigh and 4.70 Log10 CFU/thigh
- Replicate Log10 CFU/thigh data ([2]; NRS100, pp296 50 mg/kg alone, Run #2, 50 mg/kg): 4.62 Log10 CFU/thigh and 4.73 Log10 CFU/thigh and 4.66 Log10 CFU/thigh and 4.41 Log10 CFU/thigh and 5.94 Log10 CFU/thigh and 6.34 Log10 CFU/thigh
- Replicate Log10 CFU/thigh data ([2]; NRS123, pp296 50 mg/kg alone, 50 mg/kg): 6.53 Log10 CFU/thigh and 8.01 Log10 CFU/thigh and 8.08 Log10 CFU/thigh and 7.48 Log10 CFU/thigh and 8.41 Log10 CFU/thigh and 8.38 Log10 CFU/thigh
- Replicate Log10 CFU/thigh data ([2]; NRS217, pp296 50 mg/kg alone (VAN 1.5 mg/kg study)): 7.46 Log10 CFU/thigh and 7.45 Log10 CFU/thigh and 4.60 Log10 CFU/thigh and 4.79 Log10 CFU/thigh and 7.49 Log10 CFU/thigh and 6.72 Log10 CFU/thigh
- Replicate Log10 CFU/thigh data ([2]; NRS217, pp296 50 mg/kg alone, Run #1, 50 mg/kg): 4.75 Log10 CFU/thigh and 6.79 Log10 CFU/thigh and 5.06 Log10 CFU/thigh and 4.93 Log10 CFU/thigh and 5.72 Log10 CFU/thigh and 5.76 Log10 CFU/thigh
- Replicate Log10 CFU/thigh data ([2]; NRS217, pp296 50 mg/kg alone, Run #2, 50 mg/kg): 5.35 Log10 CFU/thigh and 5.98 Log10 CFU/thigh and 6.08 Log10 CFU/thigh and 5.42 Log10 CFU/thigh and 4.32 Log10 CFU/thigh and 6.26 Log10 CFU/thigh
- Replicate Log10 CFU/thigh data ([2]; isolate CAIRD426, pp296 50 mg/kg alone, VAN 5 mg/kg study): 8.95 Log10 CFU/thigh and 7.96 Log10 CFU/thigh and 7.74 Log10 CFU/thigh and 8.34 Log10 CFU/thigh
- mean bacterial density vs starting inoculum ([2]; pp296 0.5 mg/kg IV + vancomycin 1.5 mg/kg SC, 4 isolates): 0.92±1.24 log10 CFU/thigh
- mean bacterial reduction vs starting inoculum ([2]; pp296 0.5 mg/kg IV + vancomycin 3 mg/kg q12h SC, 8 isolates): −0.26±1.10 log10 CFU/thigh
- mean bacterial reduction vs starting inoculum ([2]; pp296 0.5 mg/kg IV + vancomycin 5 mg/kg SC, 4 isolates): −0.59±0.79 log10 CFU/thigh
- mean bacterial density vs starting inoculum ([2]; pp296 50 mg/kg IV + vancomycin 1.5 mg/kg SC, 4 isolates): −0.61±0.82 log10 CFU/thigh
- mean bacterial reduction vs starting inoculum ([2]; pp296 50 mg/kg IV + vancomycin 3 mg/kg q12h SC, 8 isolates): −1.01±0.41 log10 CFU/thigh
- mean bacterial reduction vs starting inoculum ([2]; pp296 50 mg/kg IV + vancomycin 5 mg/kg SC, 4 isolates): −0.85±0.54 log10 CFU/thigh
- average growth vs starting inoculum ([2]; pp296 50 mg/kg alone, 4 isolates (VAN 1.5 mg/kg study)): 0.75±1.24 log10 CFU/thigh
- average growth vs starting inoculum ([2]; pp296 50 mg/kg alone, 4 isolates (VAN 5 mg/kg study)): 1.44±1.43 log10 CFU/thigh
- average growth vs starting inoculum ([2]; pp296 50 mg/kg q24h IV alone, 8 isolates (VAN 3 mg/kg study)): 0.37±1.27 log10 CFU/thigh
- efficacy of dose-fractionation (q12h v. q8h) compared with q24h ([3]; pp296 5 or 50 mg/kg/day IV with vancomycin or daptomycin): does not appear to provide enhanced efficacy
- driver of efficacy (PK/PD index) ([3]; pp296 with vancomycin or daptomycin): AUC related
